Measurements: the domain aggregation screens of Martell et al. (2025)

Assay: soluble fraction after stress (log2 fold change); higher = more stays soluble; pooled small domains, quantitative proteomics
Conditions: stress: 75 degC
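Also: 20 min heating vs room temperature control held 20 min.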

Sequence	soluble fraction (log2)
HMNSNTIIINDIMTKIGKEVKNFTEIYSIILKALAEHGEEYVRTNTEYALKNFTGNFDIFLEQLLLK	-0.207
HMNSRAERKEAAKEAIRNLLREGMTFEELTGPWLEKRFAEEPFNRGARSWQMLISEIKEEPEFQHL	-0.014
HMNSRQPEEEALFELLAKNPYSDEQLEEIRIAIGSGISYKDVLVIADIKNTAKQMKKLRLKFTKDTG	-0.561
HMNSTEQQTERFLATLTSLGGNAGNQRLQEALGWQGSTYQRIKQHLLDEGRIRTGRGRGGSVALSEATAT	0.0863
HMNSTGVYQRPDGFWEYRFTLSINGKKLPRRKSTDLMGNKLKTKREAIKAREEAIIALRTEKTI	-1.42
HMNSTVKVPNVVGMSVPQAKALLEQNHLLVQGIREVSTDKAPAGIVINQLPYSDAEVKEERHIYLTVSKGK	0.968
HMNSVKSPMPGTILGLKVSVGDTVKVGDELLVLESMKMENMINSPIDGTVSKILISEGDSVQHGQELII	0.238
HMNSVSARRSAAITAISTGRIHSQEDLVQALKKAGYPVTQATASRDIEEIGAVRIRNQKGEMVYAIS	0.208
HMNTEEITYSRFQQMLEAGEISQVSIESNRILILPSEETGIEKVLYTGIINDPGLVERLNSAGVEFRAPIE	-0.31
HMNTEFDVPDVVGKTLDEAEFVLKGSNLKRGLIMPVDDPSKAPGTIVRQNPEAGAGNKIRVGDVVDLWVVG	0.271
HMNTELSPKVWDVVQEFILYRKEIKAPMTEHAVKLLIGQLQKLSSDPDEQIEILRQSIVNGWKGIFSLK	-1.2
HMNTGTTISYSDFRDRVASGTVKEVQISDDRITGVLKNDETFNTVPVGNDSGLTKLLDDNGVTYSGTP	0.299
HMNTIFSVNGPVVKVKDTKDFSMMEMVYVGEKKLIGEVIGITESFTTIQVYEVTTGLKVGEPVYTTGAPM	-0.361
HMNTIIHPIRLAYVDSGSIKSMAEQAEIDVKILTSEANSQIFWAIGDEKQIDRLYNLISQVDIIQNK	-1.86
HMNTKHVFIIEQDDEKKRLDIFLVEKLQDSRSFLKKGIVEGWVKVNESVVKPNYKLKQKDQITVIIPP	-1.47
HMNTNDFTIGTRVRTTKKGNGSSDGTSNTARSGIEGTITRIIPEAKYPYLVSTTVPMGWYKKDALEK	0.00349
HMNTPLYLKIREQIFDALRSGRWAANDPLPSETKLASEFEVSQGTIRKAIDDLVAQNILYRHQGRGTFIRR	-1.21
HMNTSSVTVHYQDEAGKSLADTVTLTGKVGETYSSEQKKITGYNFKEVRGNPKGQFTTEAQTVTYVYTQAA	0.211
HMNTWVEIFRAEDQGQIRDASLVLLAVKVAHRVDMNSSSAPWSLMVPAQDQQRAHHELTTYWQENAH	-2.03
HMNVAELIEGHEAEIAEVLKEFSLLYLMRLADELGEMTKSSSGNGPFQVLKGLVYEEIARRG	-1.65
HMNVAVPTPADKRKVRVMKADINAKLRVNDANGAYAVYEELKEWVTLKGFTEWNDDLSKLSETMGSMKRKV	-0.601
HMNVDALVGQRGRVTQTFDPGLRLGRVAVGGDDWRAETTTDQPLREGDLVEVVSVESNTLIVRPIA	0.0567
HMNVDSLIGQTARVIVDINNNDSIGYALVGGQEWTARAENDNDIIPKDTLVEIVGVSGVKLIVRRKE	0.0563
HMNVDSLVGSEARVTAEIDNRKETGTAMVNGQEWTARAESDEEIYPVGTIVEIRKIQGVKLIVSTH	-0.394
HMNVEATAETLLALLKKNGGSLPFGDKSDPEAIQSQLKMSKKTFKKAAGTLFKKKLVRIEDHGIFL	-2.02
HMNVEGEVVVPNVIGRTMKDVAVILSDLGLRMEAEGTGVAKSSQPQHGTSVKRGTVVQVRFEPLSVN	0.648
HMNVEKLREMYPEGTKIILQEMQGESRMAKGLKGTVTHVDDAGQIHMKWENGSSLVLNVEVDTFKKIE	0.0771
HMNVEVDSIGDDDFLVKVSAGTSTEHRVTLTDAYWEQIWSSSLPKKEIISLSFAFLLEREPNSSIMRT	0.161
HMNVNALIGQEGIVIKEINSGSNKIGQVKISGDTWSAVTTNDFTNAIPVGSNVKILKIDGVNLIVEPVY	-0.255
HMNVNVSFTQLRHKAEHAIQAKNWSEARNLLTLATLMRPTHRNVARRLKAVEQRNRLFRRLLLILTHRKV	-0.429
